Source: paper PMC314469, “Protein Interaction Networks by Proteome Peptide Scanning” (PLoS Biology, 2004)

B1: YKL196C 79-92 (peptide)
chain: LITDKEYPVRPAYT
B2: YDL197C 382-395 (peptide)
chain: LGSEKSSPLAPAVA
B3: YBL101W-B 1606-1619 (peptide)
chain: LIWHKNKPTKPDNK
B4: YML034W 45-58 (peptide)
chain: LFDEKVKPQIPQLR
B5: YAR009C 1032-1045 (peptide)
chain: LIWHKNKPTEPDNK
B6: YLR214W 271-284 (peptide)
chain: LFGIRNNPFIPITG
B7: YJL176C 589-602 (peptide)
chain: LGPLKYAPHLPFSK
B8: YNL231C 198-211 (peptide)
chain: LIDFKDYPDVPKVP
B9: YIL047C 206-219 (peptide)
chain: LKDNRLLPSWPKRG
B10: YMR022W 58-71 (peptide)
chain: LEFPKDYPLSPPKL
B11: YBL005W-B 1591-1604 (peptide)
chain: LIWHKSKPVKPTNK
B12: YGL131C 1018-1031 (peptide)
chain: LKHTKNKPKNPDTA
B13: YOR336W 752-765 (peptide)
chain: LGLHKWLPDIPLFE

Legend:
Test in all cases: SPOT array
[1] = molecular target: Sho1 SH3 (SHO1_YEAST), P40073
Chain of Sho1 SH3 (SHO1_YEAST), P40073 (P40073 295-366): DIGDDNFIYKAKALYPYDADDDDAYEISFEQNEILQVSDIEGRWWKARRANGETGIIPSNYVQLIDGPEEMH

[2] = molecular target: T1, Myo5 SH3 (MYO5_YEAST), Q04439
T1 chain: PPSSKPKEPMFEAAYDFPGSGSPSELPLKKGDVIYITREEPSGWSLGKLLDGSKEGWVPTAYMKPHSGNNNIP

[3] = molecular target: T2, Boi1 SH3 (BOI1_YEAST), P38041
T2 chain: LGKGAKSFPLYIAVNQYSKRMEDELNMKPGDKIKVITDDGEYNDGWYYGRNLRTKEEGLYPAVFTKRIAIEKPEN

[4] = molecular target: T3, Yhr016c SH3 (YSC84_YEAST), P32793
T3 chain: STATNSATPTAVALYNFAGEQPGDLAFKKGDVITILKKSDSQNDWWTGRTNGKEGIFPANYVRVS

[5] = molecular target: T4, Yfr024 SH3 (LSB3_YEAST), P43603
T4 chain: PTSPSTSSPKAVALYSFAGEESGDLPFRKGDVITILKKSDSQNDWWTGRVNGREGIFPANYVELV

[6] = molecular target: T5, Boi2 SH3 (BOI2_YEAST), P39969
T5 chain: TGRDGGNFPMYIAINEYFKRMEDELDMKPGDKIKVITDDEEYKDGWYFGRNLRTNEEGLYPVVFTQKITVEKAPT

[7] = molecular target: T6, Rvs167 SH3 (RV167_YEAST), P39743
T6 chain: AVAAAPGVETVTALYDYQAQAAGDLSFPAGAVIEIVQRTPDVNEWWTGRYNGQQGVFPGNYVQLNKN

Row | Binder | normalised SPOT signal, Boehringer light units (BLU); mean over the file's lines of this peptide [1] | normalised SPOT signal, Boehringer light units (BLU); mean over the file's lines of this peptide [2] | normalised SPOT signal, Boehringer light units (BLU); mean over the file's lines of this peptide [3] | normalised SPOT signal, Boehringer light units (BLU); mean over the file's lines of this peptide [4] | normalised SPOT signal, Boehringer light units (BLU); mean over the file's lines of this peptide [5] | normalised SPOT signal, Boehringer light units (BLU); mean over the file's lines of this peptide [6] | normalised SPOT signal, Boehringer light units (BLU); mean over the file's lines of this peptide [7]
1 | B1 | 7.7 | 136 | 139 | 19.3 | 126 | 21.9 | 17.5
2 | B2 | 11.2 | 122 | 72.6 | 26.8 | 21.4 | 52.5 | 64.8
3 | B3 | 106 | 300 | 268 | 71.1 | 862 | 27.9 | 85.3
4 | B4 | 18.8 | 89.2 | 59.1 | 15.7 | 42.8 | 4.9 | 66.6
5 | B5 | 82.2 | 155 | 120 | 94.9 | 587 | 29.2 | 102
6 | B6 | 15.8 | 170 | 281 | 426 | 342 | 25.5 | 139
7 | B7 | 227 | 428 | 133 | 150 | 213 | 71.6 | 81.1
8 | B8 | 36 | 154 | 15.5 | 2 | 12.7 | 47.9 | 28.2
9 | B9 | 350 | 518 | 152 | 488 | 3640 | 21.8 | 144
10 | B10 | 78.8 | 135 | 110 | 14.8 | 64.1 | 0 | 114
11 | B11 | 106 | 354 | 139 | 73 | 1320 | 30.5 | 71.9
12 | B12 | 45.5 | 406 | 1870 | 16.8 | 47.5 | 25.8 | 39.5
13 | B13 | 10800 | 168 | 180 | 44.6 | 49 | 15.1 | 16.5
